Columns and labels:
[1] = biological target: mouse α-synuclein (WT-α-syn from mouse) (mouse, UniProt O55042 1-140); test: method not named in the sentence (Western blot in the same paragraph)
[2] = biological target: α-synuclein aggregates from mouse (mouse, UniProt O55042 1-140); test: filter retardation assay
[3] = biological target: β-synuclein (UniProt Q16143 1-134); test: Western blot
[4] = biological target: γ-synuclein (UniProt O76070 1-127); test: Western blot
Sequence of γ-synuclein (O76070 whole entry): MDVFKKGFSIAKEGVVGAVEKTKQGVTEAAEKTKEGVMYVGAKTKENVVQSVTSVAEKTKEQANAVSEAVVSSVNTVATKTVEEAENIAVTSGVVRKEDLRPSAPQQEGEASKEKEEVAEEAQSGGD

Sequence of β-synuclein (Q16143 whole entry): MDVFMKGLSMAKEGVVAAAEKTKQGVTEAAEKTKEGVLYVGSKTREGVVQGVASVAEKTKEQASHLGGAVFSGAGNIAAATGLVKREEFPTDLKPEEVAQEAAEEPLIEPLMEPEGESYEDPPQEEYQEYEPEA

B1: monoclonal antibody 2A1 (antibody, mouse IgG1, kappa, V domains shown)
VH: QVQLQQPGAELVKPGASVKMSCKASGYTFSSYNLHWVKQTPGQGLEWIGAIYPGNGDTSYNQKFKGKATLTADKSSSTAYMQLSSLTSEDSAVYYCTRRDYYGSRGFAYWGQGTLVTVSA
VL: DIQMNQSPSSLSASLGDTITITCHASQNINVWLSWYQQKPGNIPKLLIYKASNLHTGVPSRFSGSRSGTGFTLTISSLQPEDIATYYCQQGQSFPWTFGGGTKLEIKR
notes: also called mAb 2A1
Does B1 bind [1]?
Result: binds

Does B1 bind [2]?
Result: binds

B2: monoclonal antibody 4B1 produced by the hybridoma 4B1, ATCC Patent Deposit Number PTA-127017 (antibody, mouse IgG1, kappa, V domains shown)
VH: EVKLVESGGGLVQPGGSLKLSCAASGITFSSYTMSWVRQTPEKRLEWVGYISNGGGRTYYPDTVKGRFTISRDNAKNTLYLQMSSLKSEDTAMYYCARQITTAMGYYYAMDYWGQGTSVTVSS
VL: DVVMTQTPLSLPVSLGDQASISCRSSQSLVHSNGNTYLHWYLQKPGQSPKLLISKVSNRFSGVPDRFSGSGSGTDFTLKISRVEAEDLGVYFCSQSTHVPLTFGAGTKLELKR
notes: also called mAb 4B1
Which results are given for B2?
binding result [3]: no binding; binding result [4]: no binding

— US20240402194A1 (QATAR FOUNDATION FOR EDUCATION SCIENCE AND COMMUNITY …, published 2024)
